The results in this text go back to PMC5383425, “Differential CLE peptide perception by plant receptors implicated from structural and functional analyses of TDIF-TDR interactions” (PLoS ONE, 2017).

Square brackets hold non-standard residues; d marks the D form. Ends that are not written are not given here. Hyp = O=C(O)[C@@H]1C[C@@H](O)CN1

The assay addresses T1, extracellular domain of A. thaliana TDR (residues 30-642) (Arabidopsis thaliana, UniProt Q9FII5 30-642, N-glycosylated at N111, N356, N378, N471 and N525 (one GlcNAc visible on each in the structures)).
T1 construct: TDR/PXY (TDIF RECEPTOR / PHLOEM INTERCALATED WITH XYLEM) of A. thaliana, extracellular domain, residues 30-642; the structure models hold residues 40-625; also called ecdTDR; TDR-ECD; source: High Five insect cells (baculovirus), secreted, purified (Ni-NTA, size-exclusion chromatography)
T1 sequence (looked up): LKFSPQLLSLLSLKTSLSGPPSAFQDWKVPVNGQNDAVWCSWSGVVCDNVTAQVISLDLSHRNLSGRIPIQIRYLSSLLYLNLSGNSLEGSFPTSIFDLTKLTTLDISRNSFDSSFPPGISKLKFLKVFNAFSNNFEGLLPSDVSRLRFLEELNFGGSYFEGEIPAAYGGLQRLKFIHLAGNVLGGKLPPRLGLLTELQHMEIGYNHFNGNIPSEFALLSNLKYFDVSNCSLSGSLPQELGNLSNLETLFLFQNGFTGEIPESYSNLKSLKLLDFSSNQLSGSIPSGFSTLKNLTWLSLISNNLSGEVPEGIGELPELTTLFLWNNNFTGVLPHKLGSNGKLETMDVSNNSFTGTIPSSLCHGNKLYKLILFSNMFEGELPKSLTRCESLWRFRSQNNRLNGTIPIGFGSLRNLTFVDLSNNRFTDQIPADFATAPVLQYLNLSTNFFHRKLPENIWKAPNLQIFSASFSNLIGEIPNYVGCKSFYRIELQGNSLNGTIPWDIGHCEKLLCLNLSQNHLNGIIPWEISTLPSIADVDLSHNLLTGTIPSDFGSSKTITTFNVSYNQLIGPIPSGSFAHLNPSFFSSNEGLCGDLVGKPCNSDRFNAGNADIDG
In words: crystal structure; ecdTDR 5 mg/ml (42 μM) mixed with 420 μM TDIF, 4°C for 1 hour; crystals at 18°C in 200 mM MgSO4, 20% PEG 3350; 2.75 Å. As to conditions: both partners purified.

B1: Tracheary Element Differentiation Inhibitory Factor (TDIF) peptide (peptide)
peptide: HEV[Hyp]SG[Hyp]NPISN
notes: TDIF, the 12-residue CLE peptide processed from CLE41 and CLE44 of A. thaliana; printed as HEV(Hyp)SG(Hyp)NPISN; numbers count on: the 12-residue peptide; CLE44 encodes the same peptide; also called wild type TDIF; wtTDIF; source: synthetic peptide (peptide 2.0)
With B1, the binding result was “binds”.
